From patent publication US20260250737A1, “Engineered Luciferases and Luciferin Substrates” (Monod Bio, Inc., priority 2023, published 2026)
Substitutions are numbered along the chain they refer to.

B1: MBIO-5358: computationally generated LgLux, SEQ ID NO 2774 (protein)
chain: MSEEQIRQDLLRFYEALDSGDAITAASLFNPGVTITLWDGTTFTSVEEFREWFESQFSTSKDALREISSLEVRGDTVEVTVRLSFTRNGQKHTVDLLQQFKFI
B2: MBIO-5365: computationally generated LgLux, SEQ ID NO 2780 (protein)
chain: MTPEELRQNLLRFYEALDSGDAVAAASLFNPGVTITLWDGTTFTSVEEFREWFETQFKTSKDALREIESLEVDGDTVRVTVRLTFTRDGEEQVVDLLQLFKFV
B3: MBIO-5370: computationally generated LgLux, SEQ ID NO 2785 (protein)
chain: B2 chain with L6I, L11R, V23E, A26K, N30D, T55E, Q92K
B4: MBIO-5368: computationally generated LgLux, SEQ ID NO 2783 (protein)
chain: B2 chain with A26K, P31S, T41A, V46I, E48K, E54D, R87S
B5: MBIO-5369: computationally generated LgLux, SEQ ID NO 2784 (protein)
chain: B2 chain with L6I, V23E, A26K, T55E, Q92K
B6: MBIO-5366: computationally generated LgLux, SEQ ID NO 2781 (protein)
chain: B2 chain with A26K
B7: MBIO-5367: computationally generated LgLux, SEQ ID NO 2782 (protein)
chain: B2 chain with P31S, T41A, V46I, E48K, E54D, R87S
B8: MBIO-5362: computationally generated LgLux, SEQ ID NO 2777 (protein)
chain: MTPEERIANVLAFYAALASGDLEAAAALFNPGVTITLWDGTTFTSVEEFRAWFEEQFKTSKDALREIESIEVDGDTVRVLVRLSFTRNGQKHTVDLLQLFKFV
B9: MBIO-5371: computationally generated LgLux, SEQ ID NO 2786 (protein)
chain: B8 chain with N9D, A26K, L99Q, V103I
B10: MBIO-5361: computationally generated LgLux, SEQ ID NO 2776 (protein)
chain: MTPEELIANVLAFYAALASGDLVAAKALFNSGVTITLWDGATFTSIEKFRAWFDTQFKTSKDALREIESIEVDGDTVRVLVRLTFVSDGEEQVVDLLQLFKFV
B11: MBIO-5380: computationally generated LgLux, SEQ ID NO 2795 (protein)
chain: MTPEERIADVRAFYAALASGDLEAAKALFDPGVTITLWDGTTFTSVEEFRAWFEEQFKTSKDALREIESIEVDGDTVRVLVRLTFVRDGEEKVVDLLQLFKFV
B12: MBIO-5372: computationally generated LgLux, SEQ ID NO 2787 (protein)
chain: B11 chain with R11L, D30N, L99Q, V103I
B13: MBIO-5375: computationally generated LgLux, SEQ ID NO 2790 (protein)
chain: B8 chain with N9D, L11R, A26K, N30D
B14: MBIO-5363: computationally generated LgLux, SEQ ID NO 2778 (protein)
chain: B8 chain with A26K
B15: MBIO-5374: computationally generated LgLux, SEQ ID NO 2789 (protein)
chain: B11 chain with D9N, K26A
B16: MBIO-5360: computationally generated LgLux, SEQ ID NO 2775 (protein)
chain: B10 chain with S31P, A41T, I46V, K48E, D54E, S87R
B17: MBIO-5376: computationally generated LgLux, SEQ ID NO 2791 (protein)
chain: B8 chain with N9D, L11R, A26K, N30D, V103I
B18: MBIO-5381: computationally generated LgLux, SEQ ID NO 2796 (protein)
chain: B11 chain with D9N, R11L, D30N
B19: MBIO-5373: computationally generated LgLux, SEQ ID NO 2788 (protein)
chain: B11 chain with D9N, R11L, K26A, D30N
B20: MBIO-5364: computationally generated LgLux, SEQ ID NO 2779 (protein)
chain: B8 chain with L11R, A26K, N30D

Test system: SmLux
Assay: Computationally generated LgLux variants expressed in E. coli, tested in lysates with SmLux and substrate 1c
Format: biochemical
Settings: Table 22, 20 uM SmLux, 50 uM substrate 1c
In short: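 Variants expressed in E. coli and screened as lysates, complemented with 20 uM SmLux and given 50 uM substrate 1c; luminescent activity measured.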

Molecule	Fold change upon SmLux peptide addition
B1	243.66
B2	359.8
B3	390.25
B4	4.95
B5	289.49
B6	32.61
B7	6.08
B8	27.24
B9	48.58
B10	5.17
B11	157.38
B12	20.86
B13	98.41
B14	32.23
B15	240.47
B16	3.64
B17	245.29
B18	22.28
B19	151.01
B20	172.59

Same assay, conditions: Table 22, 50 uM substrate 1c

Molecule	Baseline Signal (Normalized by expression)
B1	440.6
B2	1452.6
B3	4567
B4	366.8
B5	760
B6	931.2
B7	231.6
B8	906.4
B9	234.6
B10	156.4
B11	322.6
B12	210.6
B13	207.6
B14	339.2
B15	796
B16	150.2
B17	409.4
B18	158.6
B19	388.2
B20	376.8
